Reference: paper PMC12248463, “Humanized scFv Molecule Specific to an Extracellular Epitope of P2X4R as Therapy for Chronic Pain Management” (Cells, 2025)

B1: humanized P2X4R scFv HC3-LC3 (lead) (scFv, V domains shown)
VH: EVQLVESGGGLVQPGGSLRLSCATSGFTFTDYYMHWVRQAPGKGLEWVGFIRNKANGYTTEYSASVKGRFTISRDNSKNTLYLQMNSLRAEDTAVYYCARWEGDLLYAMDYWGQGTLVTVSS
VL: DIQMTQSPSSLSASVGDRVTITCRASQGISNYLNWYQQKPGKAPKLLIYYTSSLHSGVPSRFSGSGSGTDFTLTISSLQPEDFAYYYCQQYSKLPWTFGGGTKVEIK
notes: humanized VH hscFv95.HC3 (CDRs of murine mscFv95 grafted on a human framework); 15-amino-acid linker, printed as (G4S)3; humanized VL hscFv95.LC3, as the VL of m3; Cloned NcoI/NotI into a pET32a-His vector; Captured on HIS1K penta-His sensors in the Octet assay; also called hscFv HC3-LC3; P2X4R hscFv; source: E. coli Rosetta-gami (DE3), purified (HisTrap, SEC)
B2: humanized P2X4R scFv HC1-LC1 (scFv, V domains shown)
VH: EVKLVESGGGLVQPGGSLRLSCATSGFTFTDYYMSWVRQPPGKALEWLGFIRNKANGYTTEYSASVKGRFTISRDNSQSILYLQMNTLRAEDSATYYCARWEGDLLYAMDYWGQGTSVTVSS
VL: DIQMTQTTSSLSASLGDRVTISCSASQGISNYLNWYQQKPDGTVKLLIYYTSSLHSGVPSRFSGSGSGTDYSLTISNLEQEDIATYYCQQYSKLPWTFGGGTKLEIK
notes: humanized VH hscFv95.HC1 (CDRs of murine mscFv95 grafted on a human framework); 15-amino-acid linker, printed as (G4S)3; humanized VL hscFv95.LC1 (CDRs of murine mscFv95 grafted on a human framework); Cloned NcoI/NotI into a pET32a-His vector; also called hscFv95.HC1 + hscFv95.LC1; source: E. coli Rosetta-gami (DE3), purified (HisTrap, SEC)
B3: humanized P2X4R scFv HC2-LC1 (scFv, V domains shown)
VH: QVQLQESGPGLVKPSQTLSLTCTTSGFTFTDYYMSWVRQAPGKGLEWIGFIRNKANGYTTEYSASVKGRFTISRDNSKNQFSLRLSSVTAADTAVYYCARWEGDLLYAMDYWGQGTTVTVSS
VL: B2 VL
notes: humanized VH hscFv95.HC2 (CDRs of murine mscFv95 grafted on a human framework); 15-amino-acid linker, printed as (G4S)3; humanized VL hscFv95.LC1, as the VL of m1; Cloned NcoI/NotI into a pET32a-His vector; also called hscFv95.HC2 + hscFv95.LC1; source: E. coli Rosetta-gami (DE3), purified (HisTrap, SEC)
B4: humanized P2X4R scFv HC2-LC3 (scFv, V domains shown)
VH: B3 VH
VL: B1 VL
notes: humanized VH hscFv95.HC2, as the VH of m2; 15-amino-acid linker, printed as (G4S)3; humanized VL hscFv95.LC3 (CDRs of murine mscFv95 grafted on a human framework); Cloned NcoI/NotI into a pET32a-His vector; also called hscFv95.HC2 + hscFv95.LC3; source: E. coli Rosetta-gami (DE3), purified (HisTrap, SEC)
B5: humanized P2X4R scFv HC3-LC1 (scFv, V domains shown)
VH: B1 VH
VL: B2 VL
notes: humanized VH hscFv95.HC3, as the VH of m4; 15-amino-acid linker, printed as (G4S)3; humanized VL hscFv95.LC1, as the VL of m1; Cloned NcoI/NotI into a pET32a-His vector; also called hscFv95.HC3 + hscFv95.LC1; source: E. coli Rosetta-gami (DE3), purified (HisTrap, SEC)

How the values were obtained:
[1] = target: T1, human P2X4R peptide (extracellular 13-amino-acid peptide fragment of human P2X4R) (Homo sapiens, UniProt Q99571, biotinylated (position not given) where immobilised as ligand); test: BLI; Octet RED384; hscFv (5 ug/mL) captured on HIS1K penta-His sensors; peptide in 7 three-fold dilutions, 1.03-250 nM; 1X KB (PBS pH 7.4, 0.02% Tween-20, 0.1% albumin, 0.05% sodium azide); association 240 s, dissociation 420 s; global 1:1 fit; conditions: both partners purified
T1 construct: P2X purinoceptor 4, human; extracellular 13-amino-acid peptide fragment, the counterpart of rat residues 301-313 (11/13 residues identical to the rat peptide); also called human P2X4 peptide; source: synthetic peptide (GenScript)
T1 chain: RDLAGNEQRTLIK

[2] = target: T1, human P2X4R peptide (extracellular …); test: ELISA; indirect ELISA, purified hscFvs on human P2X4 peptide, triplicate wells (Figure 3B); conditions: both partners purified

Binder | Kd [1] [nM] | Kd [2] [nM]
B1 | 2.5 | 2.3
B2 | – | 24
B3 | – | 12
B4 | – | 29
B5 | – | 4.7
